Laboratory results: PMC12052392 (PLOS Pathogens, 2025)

T1: epitope SH-peptide (spanning residues D1139-D1153) (SARS-CoV-2 prototype, UniProt P0DTC2)
T1 chain: DPLQPELDSFKEELD

T2: GST-fused truncated S2 protein S2 (D1139-L1152) (SARS-CoV-2, MN908947.3)
T2 construct: not shown: GST, N-terminal, kept
T2 chain: DPLQPELDSFKEEL

T3: GST-fused truncated S2 protein S2 (L1141-L1152) (SARS-CoV-2 prototype (MN908947.3), UniProt P0DTC2)
T3 construct: not shown: GST, N-terminal, kept
T3 chain: LQPELDSFKEEL

T4: GST-fused truncated S2 protein S2 (P1140-D1153) (SARS-CoV-2, MN908947.3, UniProt P0DTC2)
T4 construct: not shown: GST, N-terminal, kept
T4 chain: PLQPELDSFKEELD

T5: GST-fused truncated S2 protein S2 (P1140-L1152) (SARS-CoV-2 prototype (MN908947.3), UniProt P0DTC2)
T5 construct: not shown: GST, N-terminal, kept
T5 chain: PLQPELDSFKEEL

T6: GST-fused truncated S2 protein S2 (D1139-E1150) (SARS-CoV-2, MN908947.3, UniProt P0DTC2)
T6 construct: not shown: GST, N-terminal, kept
T6 chain: DPLQPELDSFKE


Assays:
[1] = biological target: T1, epitope SH-peptide (spanning residues …); assay: crystal structure; details: both partners purified
[2] = biological target: T7, GST-fused truncated S2 protein S2 (T1076-H1159) (SARS-CoV-2 prototype (MN908947.3), UniProt P0DTC2); assay: far-Western, overlay or dot blot; details: both partners purified
T7 construct: not shown: GST, N-terminal, kept

[3] = biological target: S2 (T1076-Q1208) protein as coated in ELISA (devoid of the His tag) (SARS-CoV-2, MN908947.3, UniProt P0DTC2); assay: ELISA; […], room temperature; […]; details: both partners purified
[4] = biological target: T2, GST-fused truncated S2 protein S2 …; assay: ELISA; […], room temperature; […]; details: both partners purified
[5] = biological target: HKU3 spike (S) protein expressed on HEK-293T cells (Bat SARS-like coronavirus HKU3, GenBank …, UniProt A0A7G6UAJ9, strain); assay: flow cytometry on cells; details: one partner purified
[6] = biological target: PANG/GD spike (S) protein expressed on HEK-293T cells (Pangolin coronavirus Guangdong …, strain); assay: flow cytometry on cells; details: one partner purified
[7] = biological target: SARS-CoV spike (S) protein expressed on HEK-293T cells (SARS-CoV, GenBank AY278554.2, UniProt P59594); assay: flow cytometry on cells; details: one partner purified
[8] = biological target: WIV1 spike (S) protein expressed on HEK-293T cells (Bat SARS-like coronavirus WIV1 …, UniProt U5WI05, strain); assay: flow cytometry on cells; details: one partner purified
[9] = biological target: SARS-CoV-2 spike (S) protein, full-length, expressed on the surface of HEK-293T cells (SARS-CoV-2 prototype (MN908947.3), UniProt P0DTC2); assay: flow cytometry on cells; details: one partner purified
[10] = biological target: T3, GST-fused truncated S2 protein S2 …; assay: BLI; […]; 20 mM HEPES pH 7.4, 150 mM NaCl, 0.05% Tween-20; details: both partners purified
[11] = biological target: T4, GST-fused truncated S2 protein S2 …; assay: as above; details: both partners purified
[12] = biological target: T5, GST-fused truncated S2 protein S2 …; assay: as above; details: both partners purified
[13] = biological target: T6, GST-fused truncated S2 protein S2 …; assay: as above; details: both partners purified
[14] = biological target: T3, GST-fused truncated S2 protein S2 …; assay: ELISA; […], room temperature; […]; details: both partners purified
[15] = biological target: T4, GST-fused truncated S2 protein S2 …; assay: ELISA; […], room temperature; […]; details: both partners purified
[16] = biological target: T5, GST-fused truncated S2 protein S2 …; assay: ELISA; […], room temperature; […]; details: both partners purified

Binder	binding result [1]	binding result [2]	binding result [3]	EC50 [4] [nM]	binding result [5]	binding result [6]	binding result [7]	binding result [8]	binding result [9]	binding result [10]	binding result [11]	binding result [12]	binding result [13]	binding result [14]	binding result [15]	binding result [16]
nanobody H145 (VHH, also called anti-SH nNb H145; not shown: His6, C-terminal, kept) VHH: QVQLVESGGGLVQTGGSLRLSCEASGSAFSSYAVNWYRQAPGKQREPVAAIGSFNTVYSDSVKGRFTISRDNAKNTVYLQMNSLKPEDTAVYICNARRGATNTWGQGTQVTVSS	binds	binds	binds	2	binds	binds	binds	binds	binds	no binding (tested: 200 nM)	no binding (tested: 200 nM)	no binding (tested: 200 nM)	binds			
nanobody H17 (VHH, also called anti-SH nNb H17; not shown: His6, C-terminal, kept) VHH: EVQVVESGGGLVQTGGSLRLSCAASGSAFSSYAVNWYRQAPGKQREPVAAIGSFNTVYSDSVKGRFTISRDNAKNTVYLQMNSLKPEDTAVYVCNARRGATNYWGQGTQVTVSP		binds	binds	11.3	binds	binds	binds	binds	binds					no binding (tested: 200 nM)	no binding (tested: 200 nM)	no binding (tested: 200 nM)
